Data on four substances can be found in paper PMC4974930.

Assay in all cases: cross-linking; 0.3 mg/ml purified F1 mutant in buffer A (20 mM HEPES pH 7.4, 100 mM KCl, 5 mM MgCl2, 5% glycerol) with trans-ABDM (azobenzene-dimaleimide), at least 2 h at room temperature, quenched with 1 mM DTT; 8% SDS-PAGE, intensity of the α/β dimer band relative to the monomer bands
For assay [1], the target named is E. coli F1 ATPase β subunit, cysteine-less, 6xHis-tagged, V409C (E. coli).
The target is the same in assay [2]. The source holds these as a separate data set.
Assay [3] concerns the target E. coli F1 ATPase β subunit, cysteine-less, 6xHis-tagged, G412C (E. coli).
Assay [4] has as its target E. coli F1 ATPase β subunit, cysteine-less, 6xHis-tagged, S327C (E. coli).
The target in assay [5] is E. coli F1 ATPase β subunit, cysteine-less, 6xHis-tagged, Q324C (E. coli).

Where two headings read alike, the source gives them in different places.

For “E. coli F1 ATPase α subunit, cysteine-less, A380C (from UniProt P0ABB0 1-513) (natural protein)”, the crosslinking ratio turned out to be 0.3 in assay [1] and 0.4 in assay [2]. “E. coli F1 ATPase α subunit, cysteine-less, G379C (from UniProt P0ABB0 1-513) (natural protein)”: in assay [3], the crosslinking ratio came out at 0.3. Consider “E. coli F1 ATPase α subunit, cysteine-less, N369C (from UniProt P0ABB0 1-513) (natural protein)”, for which the crosslinking ratio in assay [4] turned out to be 0.2.

As for “E. coli F1 ATPase α subunit, cysteine-less, S338C (from UniProt P0ABB0 1-513) (natural protein)”, the crosslinking ratio in assay [5] worked out at 0.2.
